Results from the supplement of paper PMC9112550, “Optimization of the antimicrobial peptide Bac7 by deep mutational scanning” (BMC Biology, 2022).

System: Escherichia coli TOP10
Test: shrunken log2 fold change of peptide-encoding DNA abundance (4.5 h post-induction vs induction); higher = less antimicrobial activity (less host growth inhibition)
Conditions: time post-induction: 4.5 h; library: site-saturation at positions 5, 18, 19, 20
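Further: peptides expressed intracellularly from a pBAD plasmid library in pooled LB shake-flask culture, induced with 0.3% L-arabinose, DNA abundance read by NGS, three biological replicates, DESeq2 with apeglm shrinkage.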

| Sequence | shrunken log2 fold change |
| --- | --- |
| RRIRTRPPRLPRPRPRPVHNPRP | -0.159 |
| RRIRRRPPRLPRPRPRPFEFPRP | 0.117 |
| RRIRIRPPRLPRPRPRPVPKPRP | 0.0597 |
| RRIRKRPPRLPRPRPRPAAPPRP | 1.6 |
| RRIRGRPPRLPRPRPRPCYDPRP | 0.156 |
| RRIRFRPPRLPRPRPRPDSSPRP | -0.055 |
| RRIRHRPPRLPRPRPRPVGYPRP | 0.00996 |
| RRIRMRPPRLPRPRPRPDFWPRP | 0.778 |
| RRIRCRPPRLPRPRPRPIWVPRP | -0.0515 |
| RRIRERPPRLPRPRPRPYQKPRP | -0.0207 |
| RRIRWRPPRLPRPRPRPVRSPRP | 0.239 |
| RRIRARPPRLPRPRPRPMPGPRP | -0.0941 |
| RRIRIRPPRLPRPRPRPETNPRP | -0.264 |
| RRIRIRPPRLPRPRPRPVIQPRP | -1.44 |
| RRIRKRPPRLPRPRPRPADGPRP | 0.223 |
| RRIRARPPRLPRPRPRPFKRPRP | 0.0331 |
| RRIRWRPPRLPRPRPRPHAHPRP | 0.0336 |
| RRIRWRPPRLPRPRPRPVEFPRP | -0.177 |
| RRIRERPPRLPRPRPRPLIAPRP | -0.128 |
| RRIRRRPPRLPRPRPRPHNPPRP | -0.0181 |
| RRIRCRPPRLPRPRPRPHCSPRP | -0.769 |
| RRIRVRPPRLPRPRPRPFEAPRP | -0.193 |
| RRIRVRPPRLPRPRPRPEIPPRP | 0.054 |
| RRIRYRPPRLPRPRPRPPHVPRP | -0.142 |
| RRIRRRPPRLPRPRPRPFKHPRP | -0.212 |

| Sequence | shrunken log2 fold change |
| --- | --- |
| RRIRVRPPRLPRPRPRPRGEPRP | 0.254 |
| RRIRFRPPRLPRPRPRPRVDPRP | -0.055 |
| RRIRDRPPRLPRPRPRPVNPPRP | 0.342 |
| RRIRVRPPRLPRPRPRPHGTPRP | -0.408 |
| RRIRKRPPRLPRPRPRPKPSPRP | 0.743 |
| RRIRNRPPRLPRPRPRPPNNPRP | -0.598 |
| RRIRKRPPRLPRPRPRPCDIPRP | -0.0579 |
| RRIRDRPPRLPRPRPRPFVLPRP | 0.045 |
| RRIRRRPPRLPRPRPRPNPMPRP | 0.359 |
| RRIRIRPPRLPRPRPRPKAVPRP | -0.00677 |
| RRIRLRPPRLPRPRPRPFRWPRP | 0.202 |
| RRIRGRPPRLPRPRPRPDWYPRP | 0.134 |
| RRIRDRPPRLPRPRPRPHYEPRP | -0.0202 |
| RRIRYRPPRLPRPRPRPVYTPRP | -0.499 |
| RRIRQRPPRLPRPRPRPRSDPRP | -0.208 |
| RRIRTRPPRLPRPRPRPCNEPRP | -0.173 |
| RRIRCRPPRLPRPRPRPNMEPRP | -0.237 |
| RRIRPRPPRLPRPRPRPWKVPRP | -0.0967 |
| RRIRARPPRLPRPRPRPPSSPRP | 0.342 |
| RRIRGRPPRLPRPRPRPWVHPRP | -0.0245 |
| RRIRKRPPRLPRPRPRPVKIPRP | 0.158 |
| RRIRGRPPRLPRPRPRPHWQPRP | 0.258 |
| RRIRIRPPRLPRPRPRPFTFPRP | -0.148 |
| RRIRKRPPRLPRPRPRPQHRPRP | 0.148 |
| RRIRLRPPRLPRPRPRPYGIPRP | -0.00489 |

| Sequence | shrunken log2 fold change |
| --- | --- |
| RRIRVRPPRLPRPRPRPVSWPRP | 0.469 |
| RRIRTRPPRLPRPRPRPESDPRP | -0.0712 |
| RRIRWRPPRLPRPRPRPGDSPRP | -0.163 |
| RRIRLRPPRLPRPRPRPRKQPRP | 0.0587 |
| RRIRYRPPRLPRPRPRPTYDPRP | -0.73 |
| RRIRIRPPRLPRPRPRPKTFPRP | -0.0578 |
| RRIRDRPPRLPRPRPRPPIPPRP | -0.0554 |
| RRIRFRPPRLPRPRPRPNMDPRP | 1.48 |
| RRIRMRPPRLPRPRPRPLKGPRP | -0.0357 |
| RRIRRRPPRLPRPRPRPRMCPRP | 0.17 |
| RRIRWRPPRLPRPRPRPAITPRP | 0.188 |
| RRIRPRPPRLPRPRPRPFKSPRP | -0.222 |
| RRIRGRPPRLPRPRPRPWPVPRP | 0.674 |
| RRIRSRPPRLPRPRPRPVCMPRP | -0.053 |
| RRIRKRPPRLPRPRPRPGHNPRP | -0.0457 |
| RRIRVRPPRLPRPRPRPAMNPRP | -0.498 |
| RRIRIRPPRLPRPRPRPHFSPRP | -0.181 |
| RRIRFRPPRLPRPRPRPWNLPRP | 0.0325 |
| RRIRERPPRLPRPRPRPTHTPRP | -0.409 |
| RRIRHRPPRLPRPRPRPVFQPRP | -0.0932 |
| RRIRMRPPRLPRPRPRPARDPRP | 1.65 |
| RRIRERPPRLPRPRPRPIMHPRP | -0.462 |
| RRIRIRPPRLPRPRPRPQFNPRP | -0.846 |
| RRIRARPPRLPRPRPRPQNNPRP | -0.29 |
| RRIRNRPPRLPRPRPRPTHIPRP | -0.0851 |

| Sequence | shrunken log2 fold change |
| --- | --- |
| RRIRMRPPRLPRPRPRPVTMPRP | 0.116 |
| RRIRVRPPRLPRPRPRPDMQPRP | -0.081 |
| RRIRVRPPRLPRPRPRPVNWPRP | 0.27 |
| RRIRHRPPRLPRPRPRPKTWPRP | -0.0101 |
| RRIRLRPPRLPRPRPRPHWYPRP | -0.128 |
| RRIRTRPPRLPRPRPRPWNTPRP | -0.0118 |
| RRIRNRPPRLPRPRPRPDCNPRP | -0.0899 |
| RRIRDRPPRLPRPRPRPVYMPRP | -0.506 |
| RRIRIRPPRLPRPRPRPERMPRP | -0.0641 |
| RRIRIRPPRLPRPRPRPVEQPRP | 0.107 |
| RRIRFRPPRLPRPRPRPEVDPRP | 0.084 |
| RRIRCRPPRLPRPRPRPVLDPRP | 0.0892 |
| RRIRDRPPRLPRPRPRPFCMPRP | 0.00343 |
| RRIRHRPPRLPRPRPRPHSTPRP | -0.349 |
| RRIRGRPPRLPRPRPRPCWYPRP | 0.0725 |
| RRIRHRPPRLPRPRPRPPNVPRP | -0.0106 |
| RRIRQRPPRLPRPRPRPWKLPRP | -0.09 |
| RRIRARPPRLPRPRPRPDNSPRP | -0.269 |
| RRIRLRPPRLPRPRPRPMVQPRP | -0.147 |
| RRIRSRPPRLPRPRPRPACFPRP | 1.54 |
| RRIRYRPPRLPRPRPRPFVFPRP | -0.95 |
| RRIRVRPPRLPRPRPRPQADPRP | 0.0259 |
| RRIRMRPPRLPRPRPRPAFAPRP | 0.738 |
| RRIRMRPPRLPRPRPRPLDEPRP | 0.0492 |
| RRIRCRPPRLPRPRPRPVKWPRP | -0.24 |

| Sequence | shrunken log2 fold change |
| --- | --- |
| RRIRMRPPRLPRPRPRPPNSPRP | 0.128 |
| RRIRSRPPRLPRPRPRPDREPRP | 0.154 |
| RRIRNRPPRLPRPRPRPACFPRP | 0.0188 |
| RRIRARPPRLPRPRPRPLLSPRP | 0.367 |
| RRIRHRPPRLPRPRPRPEGLPRP | 0.00161 |
| RRIRLRPPRLPRPRPRPYRDPRP | 0.0076 |
| RRIRSRPPRLPRPRPRPYIDPRP | -0.071 |
| RRIRLRPPRLPRPRPRPTPHPRP | 0.322 |
| RRIRQRPPRLPRPRPRPQWHPRP | -0.0165 |
| RRIRHRPPRLPRPRPRPGVLPRP | 0.0408 |
| RRIRKRPPRLPRPRPRPDNHPRP | -0.715 |
| RRIRCRPPRLPRPRPRPCTPPRP | -0.778 |
| RRIRLRPPRLPRPRPRPKSSPRP | 0.0397 |
| RRIRCRPPRLPRPRPRPLMSPRP | -0.289 |
| RRIRIRPPRLPRPRPRPGNHPRP | -0.227 |
| RRIRMRPPRLPRPRPRPAYWPRP | 0.509 |
| RRIRKRPPRLPRPRPRPWTGPRP | -0.0587 |
| RRIRERPPRLPRPRPRPRQFPRP | -0.174 |
| RRIRLRPPRLPRPRPRPGTHPRP | -0.107 |
| RRIRKRPPRLPRPRPRPQNRPRP | -0.169 |
| RRIRDRPPRLPRPRPRPKVTPRP | -0.0277 |
| RRIRARPPRLPRPRPRPTGAPRP | 0.906 |
| RRIRIRPPRLPRPRPRPAMLPRP | -0.22 |
| RRIRGRPPRLPRPRPRPVPCPRP | 0.463 |
| RRIRTRPPRLPRPRPRPDGAPRP | 0.132 |
